Measured values: patent US7276258B2, “Herbal extract and compound lupinoside and its analogues as anti-diabetic type II drugs from plant Pueraria tuberosa” (Council of Scientific & Industrial Research, priority 2004, dated 2007)

Biological target: T1, insulin receptor (Mus musculus, UniProt P15208)
T1 construct: endogenous in cells; host or cells: 3T3-L1 adipocytes (membrane fraction solubilized with lithium diiodosalicylate / 0.1% Triton X-100)
Assay: Scatchard analysis of 125I-insulin binding to solubilized receptor preparation from 3T3L1 adipocytes
Conditions: insulin alone
Description: Radiolabeled insulin binding to solubilized receptor preparations. Control and FFA treated 3T3L1 adipocytes were first washed thrice with 0.02M Phosphate Buffer (pH-7.4) containing 0.14M NaCl and then resuspended in Lysis Buffer (20 mM Tris-HCl, 40 mM NaCl, 5 mM EDTA, 5 mM Iodoacetamide, pH-8.4) supplemented with protease inhibitors (1 μg/ml aprotinin, 1 μg/ml pepstatin, 1 μg/ml leupeptin, 2 mM phenyl methyl sulfonyl fluoride and 1 μg/ml trypsin inhibitor). These cells were then freeze thawed thrice at −70° C. and centrifuged at 10,000 rpm for 15 min at 4° C. The pellet collected was resuspended in Lysis Buffer, sonicated and again centrifuged at 10,000 rpm for 15–20 min at 4° C. The supernatant was dialysed overnight against 10 mM Tris-HCl (pH-7.4) buffer and volume reduced by lyophilisation. […]
Scatchard Analysis. […] After the termination of the incubations, free and bound radioactivity was separated by the addition of 500 μl of 0.5% chilled polyethylene glycol (PEG; MW 6000). […] The radioactivity in the final pellet was measured in a ^125I-gamma counter. The specific binding was calculated by subtracting non-specific binding from total binding. Data were then analyzed by Scatchard analysis to determine the affinity and capacity of insulin receptor binding in the presence or absence of palmitic acid (see FIG. 1b).

T1 sequence (P15208 28-748 limits assumed): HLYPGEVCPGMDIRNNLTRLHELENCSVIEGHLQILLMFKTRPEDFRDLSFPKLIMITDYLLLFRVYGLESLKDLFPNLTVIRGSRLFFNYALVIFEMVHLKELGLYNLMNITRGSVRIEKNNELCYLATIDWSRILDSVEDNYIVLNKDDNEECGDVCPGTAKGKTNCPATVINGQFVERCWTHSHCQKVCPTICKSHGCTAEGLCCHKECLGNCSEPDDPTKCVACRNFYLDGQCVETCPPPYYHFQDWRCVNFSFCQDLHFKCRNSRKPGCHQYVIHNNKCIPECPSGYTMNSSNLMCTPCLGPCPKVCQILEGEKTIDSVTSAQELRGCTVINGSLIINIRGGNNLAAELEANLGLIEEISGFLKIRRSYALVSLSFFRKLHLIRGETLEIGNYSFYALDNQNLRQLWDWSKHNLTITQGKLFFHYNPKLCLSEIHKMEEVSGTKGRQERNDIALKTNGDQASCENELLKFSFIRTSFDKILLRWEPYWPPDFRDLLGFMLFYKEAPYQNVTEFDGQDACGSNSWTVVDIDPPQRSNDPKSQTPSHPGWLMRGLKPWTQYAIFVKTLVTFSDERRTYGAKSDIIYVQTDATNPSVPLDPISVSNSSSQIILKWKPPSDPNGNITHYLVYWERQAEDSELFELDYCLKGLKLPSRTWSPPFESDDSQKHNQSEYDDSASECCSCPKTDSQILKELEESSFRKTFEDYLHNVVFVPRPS
T1 sequence (P15208 753-1372 partner limits assumed): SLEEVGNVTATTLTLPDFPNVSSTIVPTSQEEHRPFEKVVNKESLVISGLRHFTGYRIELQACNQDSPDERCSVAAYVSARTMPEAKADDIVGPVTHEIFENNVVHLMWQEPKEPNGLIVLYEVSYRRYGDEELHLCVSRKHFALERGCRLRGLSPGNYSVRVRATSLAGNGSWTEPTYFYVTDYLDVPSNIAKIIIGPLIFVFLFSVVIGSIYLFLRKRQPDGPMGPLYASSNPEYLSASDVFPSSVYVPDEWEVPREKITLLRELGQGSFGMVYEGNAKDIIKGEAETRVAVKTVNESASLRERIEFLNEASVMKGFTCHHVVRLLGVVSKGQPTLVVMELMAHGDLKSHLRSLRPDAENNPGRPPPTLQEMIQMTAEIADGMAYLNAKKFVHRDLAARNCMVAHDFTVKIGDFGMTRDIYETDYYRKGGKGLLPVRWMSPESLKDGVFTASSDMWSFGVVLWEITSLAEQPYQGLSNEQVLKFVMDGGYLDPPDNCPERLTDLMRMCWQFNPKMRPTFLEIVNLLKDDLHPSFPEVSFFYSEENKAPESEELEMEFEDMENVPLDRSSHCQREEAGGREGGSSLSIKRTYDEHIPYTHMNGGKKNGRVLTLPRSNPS

Substance: insulin: recombinant human insulin, radiolabelled with 125I for binding
- Ka of insulin binding to solubilized receptor: 1.6e+09 M⁻¹
